Measurements taken from article PMC10011135, “Molecular identification and physiological functional analysis of NtNRT1.1B that mediated nitrate long-distance transport and improved plant growth when overexpressed in tobacco” (Frontiers in Plant Science, 2023).

Substrate: O=[N+]([O-])O
Assay: cells, lysate or membranes
Design: species or system Nicotiana tabacum
Conditions: whole roots of 2-day N-starved tobacco plants (wild-type K326 background subtracted); 5–500 μM nitrate; labelled compound (15N)

B1: NtNRT1.1B (Nicotiana tabacum) (protein)
chain: MALPETQQDSKALPDAWDYKGRPALRSSSGGWASGAMILGVEAVERLTTLGIAVNLVTYLTGTMHLGNATAANNVTNFLGTSFMLTLFGGFVADTFLGRYLTIGIFATVQAMGVTILTISTIIPSLRPPKCEQVGSSSCIPANSKQLMVLYIALYMTALGTGGLKSSVSGFGTDQFDDADKKEKGQMIKFFDWFFFFINVGSLGAVTVLVYIQDNLGREWGYGICACAIVIGLVVFLSGTRKYRFKKLVGSPLTQIASVIVAAWKKRHLELLSDSSLLFEIDDIFGEGNKKNKQKLPHSKEYRFLDKAAIKEDHDLESNGTNVVINKWKLATLTDVEEVKLLIRMLPTWATTIMFWTVYAQMTTFSVSQATTMDRHIGTFEIPPASLTVFFVGSILLTVIFYDRVIVPICRRFMNKPHGLTPLQRIFTGLVLSILAMIAAALTEVKRLKVAHLHGLTNDANATIPLSVFWLVPQFLLVGAGEAFTYIGQLDFFLRECPKGMKTMSTGLFLSTLALGFFFSSILVTIVHVVTGTTNPWLADNLNQGRLYDFYWLLAILSVLNLMFFLYFSRKYVYKEKRLAEMGIELEDDGPVCH
notes: full-length untagged ORF (1,785 bp, 594 residues) under CaMV 35S promoter, overexpressed in tobacco K326 (line L1); formerly named NtNRT1.2 (Liu et al., 2018)
Km: 29.05 ± 3.34 µM
